Patent US20210115143A1

Assays:
C1q (Sigma, Cat #C1740) = C1q (Sigma, Cat #C1740) (UniProt P02745); assay: ELISA: antibody coated at 0-25 µg/mL, C1q at 2 µg/mL, anti-C1q-HRP
[1] = molecular target: PD-L1-Fc, human IgG Fc fusion protein, human recombinant, HEK293-derived, Phe19-Thr239 (R&D systems Cat #156-B7-100) (human) (UniProt Q9NZQ7); assay: SPR (Reichert), PD-L1-Fc immobilized, antibody in solution, 1:1 model, 25 C
[2] = molecular target: human PD-L1 on primary human cells in the dendritic cell / CD4+ T cell mixed lymphocyte reaction (human) (UniProt Q9NZQ7); assay: cell-based or functional assay
[3] = molecular target: PD-L1-His tagged, human recombinant, HEK293-derived, Phe19-Thr239 (R&D systems Cat #9049-B7-100) (human) (UniProt Q9NZQ7); assay: SPR, captured antibody, PD-L1-His in solution
[4] = molecular target: CD16a receptor (Fc gamma receptor) (UniProt P08637); assay: method not stated
[5] = molecular target: CD32a receptor (Fc gamma receptor) (UniProt P12318); assay: method not stated
[6] = molecular target: PD-L1-His tagged, human recombinant, HEK293-derived, Phe19-Thr239 (R&D systems Cat #9049-B7-100) (human) (UniProt Q9NZQ7); assay: SPR (Reichert), antibody immobilized directly, PD-L1-His in solution, 1:1 model, 25 C
[7] = molecular target: PD-L1-His tagged, human recombinant, HEK293-derived, Phe19-Thr239 (R&D systems Cat #9049-B7-100) (human) (UniProt Q9NZQ7); assay: SPR (Reichert), antibody captured by immobilized anti-human IgG, PD-L1-His in solution, 1:1 model, 25 C

Sequence of PD-L1-His tagged, human recombinant, HEK293-derived, Phe19-Thr239 (R&D systems Cat #9049-B7-100) (human) (Q9NZQ7 19-239 limits assumed): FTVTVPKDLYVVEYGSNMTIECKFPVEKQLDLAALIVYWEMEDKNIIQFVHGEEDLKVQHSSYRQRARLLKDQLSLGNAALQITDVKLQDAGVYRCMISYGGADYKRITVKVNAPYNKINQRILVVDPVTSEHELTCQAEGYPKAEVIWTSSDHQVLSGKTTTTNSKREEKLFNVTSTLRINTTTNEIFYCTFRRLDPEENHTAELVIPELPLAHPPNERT
Sequence of CD32a receptor (Fc gamma receptor) (P12318 36-218): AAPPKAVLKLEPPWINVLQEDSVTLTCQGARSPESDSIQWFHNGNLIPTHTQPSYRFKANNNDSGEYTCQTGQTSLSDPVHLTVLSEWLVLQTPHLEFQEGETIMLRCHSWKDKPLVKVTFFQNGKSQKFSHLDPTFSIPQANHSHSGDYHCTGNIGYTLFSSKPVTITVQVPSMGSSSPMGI
Sequence of human PD-L1 on primary human cells in the dendritic cell / CD4+ T cell mixed lymphocyte reaction (human) (Q9NZQ7 19-290): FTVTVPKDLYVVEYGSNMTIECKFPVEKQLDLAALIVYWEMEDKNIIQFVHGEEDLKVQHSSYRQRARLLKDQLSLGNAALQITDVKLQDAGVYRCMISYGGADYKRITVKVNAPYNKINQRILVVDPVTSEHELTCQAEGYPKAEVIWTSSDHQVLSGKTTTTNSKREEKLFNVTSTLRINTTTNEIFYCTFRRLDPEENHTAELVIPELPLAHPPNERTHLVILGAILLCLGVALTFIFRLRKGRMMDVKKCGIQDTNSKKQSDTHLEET
Sequence of CD16a receptor (Fc gamma receptor) (P08637 17-208 limits assumed): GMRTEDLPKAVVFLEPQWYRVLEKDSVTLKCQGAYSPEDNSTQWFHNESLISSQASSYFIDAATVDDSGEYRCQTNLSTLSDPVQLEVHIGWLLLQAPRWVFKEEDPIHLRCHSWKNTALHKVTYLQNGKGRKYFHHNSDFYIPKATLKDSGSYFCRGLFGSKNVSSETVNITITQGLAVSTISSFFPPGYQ
Sequence of C1q (Sigma, Cat #C1740) (P02745 23-245 limits assumed, chain 1 of 3): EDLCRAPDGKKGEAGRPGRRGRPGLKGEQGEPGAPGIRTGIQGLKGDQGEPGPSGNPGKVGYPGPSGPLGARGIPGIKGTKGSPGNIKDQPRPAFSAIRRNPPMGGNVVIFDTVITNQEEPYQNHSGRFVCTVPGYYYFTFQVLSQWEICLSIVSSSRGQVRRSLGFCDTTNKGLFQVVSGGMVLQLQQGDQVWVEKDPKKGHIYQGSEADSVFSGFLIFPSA
Sequence of C1q (Sigma, Cat #C1740) (P02746 28-253 limits assumed, chain 2 of 3, further chain): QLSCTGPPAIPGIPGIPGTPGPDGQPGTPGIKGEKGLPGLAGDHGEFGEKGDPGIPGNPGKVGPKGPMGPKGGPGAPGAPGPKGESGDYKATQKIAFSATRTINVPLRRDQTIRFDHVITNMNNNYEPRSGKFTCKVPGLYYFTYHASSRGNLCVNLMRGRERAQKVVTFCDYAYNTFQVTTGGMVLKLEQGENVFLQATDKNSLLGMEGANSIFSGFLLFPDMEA
Sequence of C1q (Sigma, Cat #C1740) (P02747 29-245 limits assumed, chain 3 of 3, further chain): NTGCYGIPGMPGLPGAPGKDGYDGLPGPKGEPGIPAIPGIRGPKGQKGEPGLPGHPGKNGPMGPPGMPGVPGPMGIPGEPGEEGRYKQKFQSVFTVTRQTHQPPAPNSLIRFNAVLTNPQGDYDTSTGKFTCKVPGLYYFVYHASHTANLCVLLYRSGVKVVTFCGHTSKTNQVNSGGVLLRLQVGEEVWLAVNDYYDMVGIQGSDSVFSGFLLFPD
Sequence of PD-L1-Fc, human IgG Fc fusion protein, human recombinant, HEK293-derived, Phe19-Thr239 (R&D systems Cat #156-B7-100) (human) (Q9NZQ7 19-239 limits assumed): as the sequence (Q9NZQ7 19-239 limits assumed) above

Substance: atezolizumab (Tecentriq), Genentech Inc, Lot 3109904 (antibody)
- EC50 (C1q (Sigma, Cat #C1740)): 14.9 µg/mL
- Kd [1]: 0.26 nM
- EC50 of IL-2 secretion in mixed lymphocyte reaction (MLR) [2]: 21.5 nM
- binding affinity against that of B60-55-1 (log) [3]: 2 log
- Kd [4]: 16000 nM
- Kd [5]: 41000 nM
- Kd [6]: 0.62 nM
- Kd [7]: 0.67 nM
